Bridge positions count the residues as written; N and C are the ends. Ends that are not written are not given here.
Biological target: αMβ2 integrin (Mac-1) (UniProt P11215 17-1152; P05107 23-769)
Experiment: phage display biopanning on coated αMβ2 integrin
Experimental: The αMβ₂ integrin was purified by antibody affinity chromatography from buffy coats obtained from Finnish Red Cross Blood Transfusion Service as described previously (Li et al., 1995). Integrin diluted in Tris-buffered saline (TBS)/1 mM MnCl₂ was coated onto microtiter wells overnight at 4° C. using […] per well in the first biopanning and 100, 10 and 1 ng in subsequent pannings. The wells were blocked with 5% BSA in TBS for 1 h at 22° C. and then washed five times with TBS. Biopanning was performed using CX₇C and CX₉GC phage peptide libraries essentially as described (Koivunen et al., 1994). The construction of libraries was modified so that the single-stranded DNA encoding degenerate sequences was converted into a double-stranded form using 5 cycles of PCR with only the reverse primer and then 11 cycles with both the reverse and forward primer. A total of 6 μg of the double-stranded oligonucleotide was purified using QIAGEN PCR purification kit and ligated with 42 μg of the Fuse5 phage vector. The number of recombinants in the libraries was more than 10⁹. Phage binding, elution and subsequent amplification in E. coli were repeated five times, and after each panning bacterial colonies were picked up and stored in a 10 μl volume of TBS in microtiter wells at −20° C. For direct colony sequencing, […] aliquots of the thawed samples were subjected to PCR with 10 pmol each of the forward primer 5′ […] 3′ and the reverse primer 5′[…] 3′. The PCR conditions were 92° C. for 30 s, 60° C. for 30 s, and 72° C. for 60 s, and the cycle number was 35. One μl aliquot of the PCR reaction was taken for sequencing using 15 pmol of either one of the primers and analyzed on an ABI 310 apparatus (PE Applied Biosystems, Foster City, Calif.).
After the fifh round of selection, the CX₇C library gave a 600-fold enrichment and CX₉GC a 1000-fold enrichment of phage bound to the integrin in comparison to background. […] Four of them contained the LLG tripeptide motif.

Row | Binder | binding result
1 | CWHKDLLGC [phage displaying CWHKDLLGC] | binds
2 | CPCFLLGCC [phage displaying CPCFLLGCC (LLG-C4)] | binds
3 | CWKLLGSEEEC [phage displaying CWKLLGSEEEC] | binds
4 | CPPDLFWYC [phage displaying CPPDLFWYC] | binds
5 | CWSMELLGC [phage displaying CWSMELLGC] | binds

Biological target: T1, αLβ2 integrin on Jurkat cells (UniProt P20701 26-1170; P05107 23-769, limits assumed)
T1 construct: whole, on cells
Experiment: inhibition of αLβ2-mediated Jurkat cell adhesion to ICAM-1-Fc (coated directly or captured via protein A), Crystal Violet staining

Row | Binder | IC50 [µM]
6 | CPCFLLGCC (disulfide 1-8, 3-9, also called LLG-C4 peptide; LLG-C4 nonapeptide) [C(1-8;3-9) peptide] | ~80
